These results are taken from publication PMC4528935, “Structures of Pseudomonas aeruginosa β-ketoacyl-(acyl-carrier-protein) synthase II (FabF) and a C164Q mutant provide templates for antibacterial drug discovery and identify a buried potassium ion and a ligand-binding site that is an artefact of the crystal form” (Acta Crystallographica. Section F, Structural Biology …, 2015).

Series [1] concerns the molecule itself. Briefly: crystal structure; apo PaFabF, space group P2_(1), two molecules in the asymmetric unit; 0.2 M MgCl2, 0.1 M Tris-HCl pH 7.0, 10% PEG 8000, 293 K.
Series [2] deals with the molecule itself. Description: crystal structure; PaFabF-C164Q, space group C222_(1), a dimer in the asymmetric unit; 0.2 M NH4HCO2, 25% PEG 3350, 293 K.

B1: Pseudomonas aeruginosa β-ketoacyl-(acyl-carrier-protein) synthase II (FabF) (enzyme)
chain: MSRRRVVITGMGMLSPLGLDVPSSWEGILAGRSGIAPIEHMDLSAYSTRFGGSVKGFNVEEYLSAKEARKLDLFIQYGLAASFQAVRDSGLEVTDANRERIGVSMGSGIGGLTNIENNCRSLFEQGPRRISPFFVPGSIINMVSGFLSIHLGLQGPNYALTTACTTGTHSIGMAARNIAYGEADVMVAGGSEMAACGLGLGGFGAARALSTRNDEPTRASRPWDRDRDGFVLSDGSGALVLEELEHARARGARIYAELVGFGMSGDAFHMTAPPEDGAGAARCMKNALRDAGLDPRQVDYINAHGTSTPAGDIAEIAAVKSVFGEHAHALSMSSTKSMTGHLLGAAGAVEAIFSVLALRDQVAPPTINLDNPDEGCDLDLVAHEAKPRKIDVALSNSFGFGGTNGTLVFRRFAD
notes: β-ketoacyl-(acyl-carrier-protein) synthase II (FabF) of Pseudomonas aeruginosa, UniProt G3XDA2; the gene was cloned into pNIC28-Bsa4; theoretical mass of a monomer 43 kDa; The models hold 822 residues for two chains (4b7v) and 408 for one chain (4jpf); also called PaFabF; apo PaFabF; source: E. coli BL21(DE3)pLysS, purified (Ni2+ HisTrap, TEV cleavage, second HisTrap, Superdex 200 SEC); not …
In the case of B1, the binding result in series [1] is “binds”.

B2: PaFabF C164Q mutant (enzyme)
chain: MSRRRVVITGMGMLSPLGLDVPSSWEGILAGRSGIAPIEHMDLSAYSTRFGGSVKGFNVEEYLSAKEARKLDLFIQYGLAASFQAVRDSGLEVTDANRERIGVSMGSGIGGLTNIENNCRSLFEQGPRRISPFFVPGSIINMVSGFLSIHLGLQGPNYALTTAQTTGTHSIGMAARNIAYGEADVMVAGGSEMAACGLGLGGFGAARALSTRNDEPTRASRPWDRDRDGFVLSDGSGALVLEELEHARARGARIYAELVGFGMSGDAFHMTAPPEDGAGAARCMKNALRDAGLDPRQVDYINAHGTSTPAGDIAEIAAVKSVFGEHAHALSMSSTKSMTGHLLGAAGAVEAIFSVLALRDQVAPPTINLDNPDEGCDLDLVAHEAKPRKIDVALSNSFGFGGTNGTLVFRRFAD
notes: β-ketoacyl-(acyl-carrier-protein) synthase II (FabF) of Pseudomonas aeruginosa, UniProt G3XDA2, with Cys164 changed to Gln; same construct in pNIC28-Bsa4 as the wild type; The model holds 824 residues for two chains (4jb6); source: E. coli BL21(DE3)pLysS, purified as the wild type but in phosphate buffer; not shown: His6, N-terminal, cleaved
Turning to B2, in series [2], the binding result is “binds”.
